Assay results: patent publication US7745192

Target: human fibrinogen (UniProt P02671)

**Q.** With “thrombin resulting from action of Brown snake venom protease” as the substance, how does the “SDS PAGE banding patterns of washed fibrin clots” value read?
**A.** thrombin resulting from action of Brown snake venom protease converts fibrinogen to fibrin in a similar manner as normal α-thrombin
